Experimental data from the supplement of paper PMC10567573.

B1: CAMK2D (parent)
chain: LLKHPNIVRLHDSISEEGFHYLVF

Variants of: B1
Experiment: protein stability index of a GFP-peptide fusion (GPS, HEK-293T) (PSI 1-6); higher = more stable
Settings: c terminus: a fixed tail appended
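Further: lentivirally expressed fusions sorted by FACS into six bins by GFP to DsRed ratio, PSI derived from sequencing read proportions per bin multiplied by bin number.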

Variant	protein stability index
L1Q	1.77
L1N	2.14
L1S	2.13
L1P	1.76
L1K	3.1
L1I	3.14
F24T	1.15
F24P	1.98
F24H	2.39
F24C	1.84
F24Y	2.28
F24N	1.51
F24Q	1.85
E17H	1.87
E17L	3.59
E17K	2.71
E17S	2.93
E17W	2.94
E17M	4.04
E17Y	2.04
E17R	2.11
E17T	2.31
R9A	2.1
R9H	2.1

Variant	protein stability index
R9E	3.23
R9M	2.74
R9L	3.22
R9W	2.69
E16T	1.39
E16A	2.88
E16M	2.71
E16L	2.47
E16R	1.67
E16W	1.92
E16N	2.87
D12A	2.96
D12R	3.07
D12S	3
D12Q	1.31
D12V	2.63
H4C	1.66
H4E	2.6
H4D	1.77
H4Y	2.32
H4A	3.37
H4G	2.23
H4F	1.88
H4T	1.84

Variant	protein stability index
H4P	1.67
L2K	3.35
L2C	2.36
L2Y	1.83
L2A	2.92
L2D	2.09
L2N	3.63
V23Y	1.22
V23K	1.68
V23L	2
V23S	1.85
V23M	2.91
S13A	3.1
S13G	2.59
S13D	2.46
S13N	2.13
S13H	2.91
S13Y	2.94
S13I	2.96
S13P	2.75
S13C	2.82
S13L	2.29
F19D	1.73
F19I	2.73

Variant	protein stability index
F19W	2.42
F19Q	2.66
F19K	3.11
F19S	1.45
F19V	1.52
F19M	2.08
V8R	1.81
V8I	1.87
V8A	2.64
V8G	2.79
V8D	2.41
V8E	2.17
V8L	2.21
V8Y	2.91
N6T	3.24
N6D	1.76
N6C	2.13
N6H	2.18
N6Q	3.46
N6A	2.22
N6E	3.7
N6I	1.94
H11Q	2.07
H11A	2.57

Variant	protein stability index
H11E	2.68
H11I	2.7
H11V	1.9
H11L	1.48
H11D	2.39
H11W	2.62
I14N	2.05
I14Q	1.78
I14K	2.4
I14E	2.8
I14A	1.66
I14Y	1.89
G18Q	1.94
G18A	3.26
G18K	3.36
G18D	2.39
G18L	3.43
G18H	1.78
G18N	1.5
H20V	3.17
H20S	2.75
H20L	2.31
H20C	2.07
H20Y	1.41

Variant	protein stability index
H20F	2.39
H20P	2.08
H20Q	2.65
K3W	2.83
K3G	2.04
K3Y	3
Y21P	1.96
Y21K	1.8
Y21M	2.58
Y21A	1.38
Y21L	1.97
Y21F	2.92
L22K	2.54
L22T	2.39
L22Q	1.3
L22D	2.08
L22M	2.59
S15G	1.8
S15T	1.3
S15K	2.45
S15P	2.27
S15C	2.51
S15R	2.66
P5L	3.34

Variant	protein stability index
P5I	3.47
P5K	2.42
P5F	2.26
P5M	1.72
P5D	1.97
P5T	2.59
P5N	2.58
P5V	2.56
P5W	2.57
I7D	1.99
I7Q	2.14
I7S	1.89
I7A	1.95
I7C	3.93
I7K	1.56
L10K	2.02
L10G	1.36
L10W	3.54
L10A	2.84
L10Y	2.95
L10I	2.53
L10E	2.5
L10T	1.43
